T1: EMMPRIN (Homo sapiens, UniProt P35613)
T1 construct: cDNA coding for the human EMMPRIN extracellular domain (with a myc-HA-Flag-6His tag added at the C-terminus); made in house; host or cells: HEK293 (transfected)
T1 sequence (P35613 138-325 limits assumed): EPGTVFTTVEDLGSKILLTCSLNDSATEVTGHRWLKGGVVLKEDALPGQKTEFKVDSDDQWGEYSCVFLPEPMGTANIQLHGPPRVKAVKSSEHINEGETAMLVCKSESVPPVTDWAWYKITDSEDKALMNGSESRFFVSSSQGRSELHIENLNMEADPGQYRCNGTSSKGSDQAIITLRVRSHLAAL


How the values were obtained:
EMMPRIN = target: T1, EMMPRIN; test: Identification of EMMPRIN-binding proteins by immunoprecipitation and Western blotting; conditions: culture supernatants mixed; HA and Myc antibody; FIG. 6
Source text: EMMPRIN-binding proteins were identified by immunoprecipitation and Western blotting, for confirmation that EMMPRIN is a novel receptor for S100 protein. […] The S100 proteins used were S100A8 and S100A9 protein. HEK293 cells were transfected with plasmids coding for the proteins (with HA tags attached to the C-termini), and the proteins were isolated from the respective culture supernatants.
In order to analyze binding between EMMPRIN and S100A8 and S100A9 protein, the culture supernatants containing the respective proteins were mixed and reacted, and then HA antibody and Myc antibody were used for immunoprecipitation.

[1] = system: IL-8 (CXCL-8), TNFα, IL1-F9 and CXCL-1 expression; test: Cytokine expression in keratinocytes (NHEK) by real-time quantitative PCR; type: cell-based, human; conditions: S100A9-added sample with control siRNA (A9/LF); FIG. 4
Description: (§1) Using real-time quantitative PCR, it was then investigated whether addition of S100A9 also accelerates expression of IL-8 (CXCL-8), TNFα, IL1-F9 and CXCL-1, and whether suppressing expression of EMMPRIN has any effect on expression of these cytokines. The same method was also used to examine the effect of S100A9 stimulation on MMP-1 and MMP-10 expression.
(§2) Growth-phase NHEK, cultured in EpiLife™-KG2 (Cascade Biologies) were exposed for 3 hours after exchanging to the same culture medium containing and not containing 2 mM calcium chloride and S100A8 or S100A9 (10 μg/ml each), and a MagNA™ Pure mRNA extraction kit and a MagNA Pure™ device (Roche Diagnostics, Tokyo, Japan) were used for extraction of the mRNA. The obtained mRNA was reverse transcripted using SuperScript™ II (Invitrogen Corporation, Carlsbad, Calif., U.S.). Real-time quantitative PCR was performed on a LightCycler high-speed thermal cycler system using a LightCycler FastStart DNA master SYBR green I kit (Roche Diagnostics), according to the manufacturer's instructions. […] The expression level of each gene was quantitatively analyzed using LightCycler analysis software (NPL 11: Morrison T B et al., Biotechniques (1998)24:954-958, 960, 962). […]

[2] = system: MMP-1 and MMP-10 expression; test: MMP expression in keratinocytes by real-time quantitative PCR; type: cell-based, human; conditions: FIG. 5
Description: as §1, §2

MMP-1 expression = test: Effect of soluble EMMPRIN on MMP expression in keratinocytes; type: cell-based, human
Source text: It was therefore investigated whether soluble EMMPRIN actually accelerates expression of MMP.
It is believed that MMP expression was suppressed when soluble EMMPRIN and S100A9 were both present because S100A9 which induces MMP production was scavenged by soluble EMMPRIN, with both forming a bonded complex.

Molecule	binding to EMMPRIN (band in Western blot after immunoprecipitation) (EMMPRIN)	expression of cytokines (IL-8, TNFα, IL1-F9, CXCL-1) on addition of S100A9 [1]	expression of MMP on addition of S100A9 [2]	MMP-1 expression (MMP-1 expression; S100A9 alone, FIG. 7)	MMP-1-inducing effect (MMP-1 expression; added to keratinocytes at 0.025, 0.25 and 2.5 μM, FIG. 7)	MMP1 expression-accelerating effect of S100A9 (MMP-1 expression; both soluble EMMPRIN and S100A9 added to keratinocytes, FIG. 7)	IL-8 expression (MMP-1 expression; results not shown)	MMP-10 expression (MMP-1 expression; results not shown)	TNFα expression (MMP-1 expression; results not shown)
S100A8: EF-hand calcium-binding S100 family protein	only a band for EMMPRIN near 32 kDa was confirmed	–	–	–	–	–	–	–	–
S100A9: EF-hand calcium-binding S100 family protein, added to keratinocytes as stimulus	a band representing their bound form was confirmed near 47.5 kDa	induced expressed of all of the cytokines	accelerated expression of MMP	notably accelerated	–	–	–	–	–
soluble EMMPRIN: purified recombinant human EMMPRIN extracellular domain with myc-HA-Flag-6His tag at the C-terminus (protein, UniProt P35613 138-323, looked up, extracellular domain C-terminal myc-HA-Flag-6His tag, purified recombinant human EMMPRIN extracellular domain with myc-HA-Flag-6His tag at the C-terminus) extracellular domain: EPGTVFTTVEDLGSKILLTCSLNDSATEVTGHRWLKGGVVLKEDALPGQKTEFKVDSDDQWGEYSCVFLPEPMGTANIQLHGPPRVKAVKSSEHINEGETAMLVCKSESVPPVTDWAWYKITDSEDKALMNGSESRFFVSSSQGRSELHIENLNMEADPGQYRCNGTSSKGSDQAIITLRVRSHLA	–	–	–	–	virtually no MMP-1-inducing effect	significantly suppressed	significantly suppressed	significantly suppressed	significantly suppressed

Source: patent publication US20130129845A1, “SCREENING METHOD FOR CHRONIC INFLAMMATION INHIBITORS OR CANCER METASTASIS INHIBITORS USING INHIBITION OF BINDING BETWEEN EMMPRIN AND S100A9 AS INDEX” (priority 2010, published 2013)
